The supplement of paper PMC10065799, “High-throughput profiling of sequence recognition by tyrosine kinases and SH2 domains using bacterial peptide display” (eLife, 2023)

Experiments:
[1] = biological target: FGFR3 (UniProt P22607); test: phosphorylation enrichment, bacterial display (enrichment ratio); higher = better substrate or ligand; peptides without Tyr show the background
[2] = system: AncSZ; test: as above
[3] = biological target: Hck (UniProt P08631); test: as above
[4] = system: c-Src; test: as above
[5] = system: c-Abl (mouse); test: as above
[6] = biological target: MERTK (UniProt Q12866); test: as above
Chain of MERTK (Q12866 whole entry, looked up): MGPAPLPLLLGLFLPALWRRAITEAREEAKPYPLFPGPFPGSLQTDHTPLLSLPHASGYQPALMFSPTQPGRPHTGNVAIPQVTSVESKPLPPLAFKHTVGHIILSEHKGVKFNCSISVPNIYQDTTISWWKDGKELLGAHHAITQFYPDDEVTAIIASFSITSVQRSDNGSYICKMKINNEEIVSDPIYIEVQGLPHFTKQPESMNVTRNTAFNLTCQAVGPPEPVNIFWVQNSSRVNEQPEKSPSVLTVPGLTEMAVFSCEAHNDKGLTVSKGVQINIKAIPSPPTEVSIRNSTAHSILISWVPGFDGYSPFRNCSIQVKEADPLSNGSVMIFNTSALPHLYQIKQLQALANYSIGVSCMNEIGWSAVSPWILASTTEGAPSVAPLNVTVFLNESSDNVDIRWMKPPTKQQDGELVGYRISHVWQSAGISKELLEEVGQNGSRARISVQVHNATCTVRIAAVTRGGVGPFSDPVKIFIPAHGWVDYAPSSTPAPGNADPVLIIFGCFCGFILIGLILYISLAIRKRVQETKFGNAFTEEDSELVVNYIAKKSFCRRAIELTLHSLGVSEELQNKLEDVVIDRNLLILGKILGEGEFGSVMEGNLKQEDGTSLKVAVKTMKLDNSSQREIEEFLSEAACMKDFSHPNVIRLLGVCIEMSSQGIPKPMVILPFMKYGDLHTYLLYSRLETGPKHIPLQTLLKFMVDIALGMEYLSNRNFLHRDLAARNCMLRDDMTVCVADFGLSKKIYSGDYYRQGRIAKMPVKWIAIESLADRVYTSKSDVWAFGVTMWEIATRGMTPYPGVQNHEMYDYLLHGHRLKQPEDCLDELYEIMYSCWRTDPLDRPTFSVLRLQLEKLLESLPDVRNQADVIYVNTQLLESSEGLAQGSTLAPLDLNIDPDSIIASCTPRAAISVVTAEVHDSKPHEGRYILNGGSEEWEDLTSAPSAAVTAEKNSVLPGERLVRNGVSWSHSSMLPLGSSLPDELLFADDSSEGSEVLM

[7] = biological target: Fyn (UniProt P06241); test: as above
Chain of Fyn (P06241 whole entry, looked up): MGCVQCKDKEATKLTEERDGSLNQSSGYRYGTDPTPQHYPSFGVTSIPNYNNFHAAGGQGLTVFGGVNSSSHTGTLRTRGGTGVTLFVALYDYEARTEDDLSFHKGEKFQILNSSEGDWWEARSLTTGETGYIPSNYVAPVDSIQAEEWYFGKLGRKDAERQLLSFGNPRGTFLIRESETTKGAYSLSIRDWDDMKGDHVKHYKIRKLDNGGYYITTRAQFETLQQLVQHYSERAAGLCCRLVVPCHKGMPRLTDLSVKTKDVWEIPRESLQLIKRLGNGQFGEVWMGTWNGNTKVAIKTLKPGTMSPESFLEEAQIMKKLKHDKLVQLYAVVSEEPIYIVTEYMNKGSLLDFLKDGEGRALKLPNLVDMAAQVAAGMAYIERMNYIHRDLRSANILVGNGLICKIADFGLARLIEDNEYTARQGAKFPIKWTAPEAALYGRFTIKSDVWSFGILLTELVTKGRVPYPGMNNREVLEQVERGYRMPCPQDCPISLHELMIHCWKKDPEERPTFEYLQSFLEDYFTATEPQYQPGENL

[8] = biological target: FGFR1 (UniProt P11362); test: as above
[9] = biological target: Fes (UniProt P07332); test: as above
Chain of Fes (P07332 whole entry, looked up): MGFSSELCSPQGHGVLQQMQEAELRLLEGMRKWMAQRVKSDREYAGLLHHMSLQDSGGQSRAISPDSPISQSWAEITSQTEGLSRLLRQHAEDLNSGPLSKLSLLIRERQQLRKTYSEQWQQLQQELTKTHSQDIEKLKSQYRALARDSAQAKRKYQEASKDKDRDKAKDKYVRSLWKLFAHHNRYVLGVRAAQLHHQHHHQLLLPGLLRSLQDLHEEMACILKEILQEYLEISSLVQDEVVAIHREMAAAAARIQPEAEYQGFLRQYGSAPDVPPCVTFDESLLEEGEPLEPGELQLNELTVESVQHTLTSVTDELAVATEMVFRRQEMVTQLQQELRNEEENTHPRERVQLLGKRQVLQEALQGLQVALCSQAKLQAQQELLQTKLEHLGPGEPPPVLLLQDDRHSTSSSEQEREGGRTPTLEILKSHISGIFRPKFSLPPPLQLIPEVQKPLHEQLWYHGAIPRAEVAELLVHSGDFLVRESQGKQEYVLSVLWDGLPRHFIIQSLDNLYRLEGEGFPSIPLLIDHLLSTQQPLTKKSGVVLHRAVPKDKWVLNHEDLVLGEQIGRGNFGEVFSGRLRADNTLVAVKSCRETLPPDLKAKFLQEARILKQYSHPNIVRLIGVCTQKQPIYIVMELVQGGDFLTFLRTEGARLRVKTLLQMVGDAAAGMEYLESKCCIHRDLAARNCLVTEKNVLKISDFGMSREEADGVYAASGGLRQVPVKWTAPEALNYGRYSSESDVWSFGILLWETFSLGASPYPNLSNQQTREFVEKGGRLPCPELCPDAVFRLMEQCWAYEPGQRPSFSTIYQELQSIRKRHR

[10] = biological target: EPHB1 (UniProt P54762); test: as above
[11] = biological target: EPHB2 (UniProt P29323); test: as above
Chain of EPHB2 (P29323 whole entry, looked up): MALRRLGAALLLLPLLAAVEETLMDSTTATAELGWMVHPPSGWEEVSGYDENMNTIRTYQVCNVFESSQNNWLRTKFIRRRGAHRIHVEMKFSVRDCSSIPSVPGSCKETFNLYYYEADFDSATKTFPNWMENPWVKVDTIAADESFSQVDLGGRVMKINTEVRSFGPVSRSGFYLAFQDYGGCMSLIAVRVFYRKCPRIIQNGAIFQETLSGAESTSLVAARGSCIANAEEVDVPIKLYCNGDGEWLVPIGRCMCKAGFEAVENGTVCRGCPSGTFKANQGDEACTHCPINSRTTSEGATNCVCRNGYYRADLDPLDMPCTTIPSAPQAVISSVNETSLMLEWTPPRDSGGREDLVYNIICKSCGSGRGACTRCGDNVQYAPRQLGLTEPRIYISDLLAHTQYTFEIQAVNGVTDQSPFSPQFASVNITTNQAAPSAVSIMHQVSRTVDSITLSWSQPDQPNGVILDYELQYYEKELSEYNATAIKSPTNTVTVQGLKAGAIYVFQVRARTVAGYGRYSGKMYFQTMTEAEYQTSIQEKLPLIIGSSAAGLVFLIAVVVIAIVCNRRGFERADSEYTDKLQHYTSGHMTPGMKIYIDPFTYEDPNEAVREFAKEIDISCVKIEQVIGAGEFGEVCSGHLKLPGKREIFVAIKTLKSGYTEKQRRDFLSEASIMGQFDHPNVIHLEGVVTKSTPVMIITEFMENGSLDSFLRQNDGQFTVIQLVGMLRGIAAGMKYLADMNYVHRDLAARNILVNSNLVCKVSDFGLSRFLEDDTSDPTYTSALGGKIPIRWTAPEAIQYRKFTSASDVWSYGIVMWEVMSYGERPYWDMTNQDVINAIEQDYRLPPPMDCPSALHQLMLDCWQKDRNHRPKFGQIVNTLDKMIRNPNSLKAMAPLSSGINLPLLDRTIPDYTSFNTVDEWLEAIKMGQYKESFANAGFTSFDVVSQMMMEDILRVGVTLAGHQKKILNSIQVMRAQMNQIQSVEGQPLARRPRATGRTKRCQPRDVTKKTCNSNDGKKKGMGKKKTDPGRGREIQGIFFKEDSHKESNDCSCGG

[12] = system: Fer (mouse); test: as above
[13] = biological target: Jak2 (UniProt O60674); test: as above
[14] = biological target: c-Src SH2; test: SH2 binding enrichment of the phosphorylated peptide, bacterial display (enrichment ratio); higher = better substrate or ligand; peptides without Tyr show the background
[15] = biological target: Grb2 SH2 (UniProt P62993); test: as above
Chain of Grb2 SH2 (P62993 whole entry, looked up): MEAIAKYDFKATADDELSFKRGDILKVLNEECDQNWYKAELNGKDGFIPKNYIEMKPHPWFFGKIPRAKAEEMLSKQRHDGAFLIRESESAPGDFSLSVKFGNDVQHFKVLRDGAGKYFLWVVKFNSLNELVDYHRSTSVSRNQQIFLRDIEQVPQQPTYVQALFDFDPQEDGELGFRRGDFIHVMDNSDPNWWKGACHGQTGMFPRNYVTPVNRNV

[16] = biological target: SHP2-C SH2; test: as above
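Throughout, for SH2 binding enrichment of the phosphorylated peptide, bacterial display: peptide library displayed on the E. coli surface as eCPX fusions, selected cells deep-sequenced, score is each peptide's frequency after selection divided by its frequency in the input.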
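Throughout, for phosphorylation enrichment, bacterial display: 11-residue human phosphosite peptides and single-mutation variants displayed on the E. coli surface, counted by deep sequencing, each peptide's frequency after selection divided by its frequency in the unselected input library; frequency after pTyr selection over input frequency; kinase dosed for 20-30% of maximal phosphorylation in three min.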

Chain of FGFR3 (P22607 whole entry, looked up): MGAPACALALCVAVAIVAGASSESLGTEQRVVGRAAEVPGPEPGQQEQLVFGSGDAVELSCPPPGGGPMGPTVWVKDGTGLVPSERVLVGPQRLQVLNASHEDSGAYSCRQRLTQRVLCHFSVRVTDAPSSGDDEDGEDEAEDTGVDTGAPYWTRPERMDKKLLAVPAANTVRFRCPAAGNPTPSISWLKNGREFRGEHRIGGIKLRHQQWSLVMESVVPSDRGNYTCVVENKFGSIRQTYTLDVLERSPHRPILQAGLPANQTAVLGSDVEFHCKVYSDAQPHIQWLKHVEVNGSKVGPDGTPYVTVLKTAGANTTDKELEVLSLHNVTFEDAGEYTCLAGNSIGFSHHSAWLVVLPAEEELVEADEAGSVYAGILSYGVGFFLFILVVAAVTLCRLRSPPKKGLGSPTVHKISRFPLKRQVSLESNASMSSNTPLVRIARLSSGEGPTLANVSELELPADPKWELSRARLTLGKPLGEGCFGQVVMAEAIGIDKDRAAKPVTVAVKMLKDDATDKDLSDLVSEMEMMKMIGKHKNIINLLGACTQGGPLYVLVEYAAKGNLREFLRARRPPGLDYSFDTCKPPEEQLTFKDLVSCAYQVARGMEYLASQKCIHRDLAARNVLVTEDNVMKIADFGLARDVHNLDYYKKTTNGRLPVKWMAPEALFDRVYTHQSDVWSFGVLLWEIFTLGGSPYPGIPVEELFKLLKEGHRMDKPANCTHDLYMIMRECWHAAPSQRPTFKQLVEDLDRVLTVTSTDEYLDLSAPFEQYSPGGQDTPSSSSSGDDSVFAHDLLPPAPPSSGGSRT
Chain of Hck (P08631 whole entry, looked up): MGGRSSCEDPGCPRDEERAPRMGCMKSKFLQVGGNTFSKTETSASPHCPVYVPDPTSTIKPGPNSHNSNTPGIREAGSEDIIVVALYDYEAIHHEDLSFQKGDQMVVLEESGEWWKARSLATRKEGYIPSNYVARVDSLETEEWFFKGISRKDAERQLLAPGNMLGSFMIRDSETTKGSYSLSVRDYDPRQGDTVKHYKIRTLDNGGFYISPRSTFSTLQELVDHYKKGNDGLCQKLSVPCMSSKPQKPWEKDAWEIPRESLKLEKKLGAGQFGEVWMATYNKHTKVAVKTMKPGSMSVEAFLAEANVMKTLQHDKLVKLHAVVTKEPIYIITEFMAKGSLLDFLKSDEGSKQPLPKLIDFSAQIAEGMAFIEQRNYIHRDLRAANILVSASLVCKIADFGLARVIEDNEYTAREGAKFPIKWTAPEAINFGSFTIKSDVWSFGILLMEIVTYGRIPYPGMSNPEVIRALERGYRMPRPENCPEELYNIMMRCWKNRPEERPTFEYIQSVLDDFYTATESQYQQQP

| Sequence | phosphorylation enrichment [1] | phosphorylation enrichment [2] | phosphorylation enrichment [3] | phosphorylation enrichment [4] | phosphorylation enrichment [5] | phosphorylation enrichment [6] | phosphorylation enrichment [7] | phosphorylation enrichment [8] | phosphorylation enrichment [9] | phosphorylation enrichment [10] | phosphorylation enrichment [11] | phosphorylation enrichment [12] | phosphorylation enrichment [13] | SH2 binding enrichment [14] | SH2 binding enrichment [15] | SH2 binding enrichment [16] |
| --- | --- | --- | --- | --- | --- | --- | --- | --- | --- | --- | --- | --- | --- | --- | --- | --- |
| FEEDSYVTRSQ [RET_Y905_K907T_YF] | 1.08 | 1.18 | 0.531 | 0.617 | 0.912 | 0.47 | 0.5 | 0.452 | 1.33 | 0.651 | 0.829 | 0.529 | 1.27 | 0.419 | 0.878 | 0.548 |
| CATIHYNFMCN [TP53_Y234_T230A_YF] | 0.596 | 0.993 | 0.577 | 0.525 | 0.757 | 0.497 | 0.478 | 0.634 | 0.944 | 0.68 | 0.52 | 0.602 | 0.903 | 2.23 | 1.37 | 1.51 |
| KFMVGYEMLAK [GALT_Y339_Q344K] | 0.631 | 0.914 | 0.586 | 0.406 | 0.51 | 0.407 | 0.507 | 0.776 | 1.03 | 0.477 | 0.604 | 0.349 | 0.698 | 1.7 | 0.867 | 0.544 |
| VFPATYHPDHW [EFCAB12_Y544_YF] | 0.542 | 0.677 | 0.421 | 0.458 | 0.604 | 0.385 | 0.469 | 0.467 | 0.792 | 0.678 | 0.383 | 0.347 | 0.629 | 0.519 | 1.04 | 0.722 |
| TVLWWYTGTRP [UGT1A1_Y337_R336W] | 0.68 | 1.3 | 0.41 | 0.311 | 0.599 | 0.277 | 0.4 | 0.389 | 1.32 | 0.458 | 0.513 | 0.398 | 1.23 | 0.752 | 1.02 | 2.08 |
| PKFHSYVSLPF [PLXNA2_Y293] | 1.82 | 1.35 | 1.14 | 0.734 | 0.801 | 1.22 | 0.903 | 1.86 | 1.66 | 1.38 | 1.01 | 0.713 | 1.59 | 2.17 | 0.992 | 1.47 |
| DLDFTYIYPNI [PTEN_Y27_L25F] | 3.11 | 4.17 | 1.37 | 1.47 | 0.953 | 1.22 | 2.5 | 4.18 | 1.23 | 0.83 | 0.945 | 0.501 | 2.36 | 2.69 | 0.67 | 0.496 |
| LERYIYNRQEF [HLA-DPB1_Y59_E62Q] | 0.605 | 1.05 | 1.32 | 1.24 | 0.415 | 0.413 | 0.819 | 0.624 | 1.01 | 0.475 | 0.856 | 0.772 | 0.449 | 0.477 | 0.812 | 0.703 |
| TPGPNYRPGYN [USH2A_Y463] | 0.676 | 0.562 | 0.346 | 0.309 | 0.404 | 0.487 | 0.432 | 0.232 | 0.549 | 0.39 | 0.542 | 0.294 | 0.597 | 0.442 | 0.671 | 0.488 |
| HLNLTYRILSF [MMP23B_Y95_F91L] | 1.27 | 1.43 | 0.54 | 0.491 | 1.08 | 0.42 | 0.694 | 0.645 | 1.68 | 0.673 | 0.664 | 0.605 | 1.51 | 0.474 | 1.03 | 0.624 |
| KACKHYLTKRT [ZBTB5_Y118_T121K] | 1.19 | 0.667 | 0.582 | 0.581 | 1.05 | 0.605 | 0.595 | 0.629 | 1.17 | 0.493 | 0.662 | 0.668 | 1.3 | 1.72 | 1.94 | 1.85 |
| KDKLPYPYDDP [GPX2_Y125] | 0.655 | 1 | 0.435 | 0.486 | 0.584 | 0.42 | 0.414 | 0.562 | 1.17 | 0.599 | 0.487 | 0.455 | 1.04 | 1.67 | 0.889 | 0.757 |
| RFLRGYRQDAY [HLA-A_Y137] | 0.664 | 1.15 | 0.764 | 1.14 | 0.922 | 1.2 | 0.647 | 0.677 | 0.827 | 0.43 | 0.432 | 0.483 | 0.927 | 0.628 | 1.1 | 0.556 |
| IEDPYYGNDFD [ACP1_Y133_S137F] | 1.7 | 1.65 | 1.02 | 2.94 | 0.93 | 0.513 | 1.65 | 1.6 | 1.47 | 0.832 | 0.859 | 0.786 | 1.43 | 0.68 | 0.863 | 0.617 |
| RLPNGYGLAFR [DLK1_Y262_S260N_YF] | 0.858 | 1.5 | 0.62 | 0.616 | 0.694 | 0.51 | 0.649 | 0.684 | 1.06 | 0.737 | 0.707 | 0.737 | 0.587 | 0.699 | 0.988 | 0.932 |
| RLLVVYSWTQR [HBB_Y36_P37S] | 0.91 | 1.47 | 0.698 | 0.872 | 1 | 1.05 | 0.864 | 0.783 | 1.57 | 1.04 | 0.593 | 0.565 | 1.37 | 1.31 | 1.57 | 1.21 |
| PSPTKYSLSPS [RANBP2_Y785_R784K] | 0.471 | 1.19 | 0.354 | 0.514 | 0.553 | 0.473 | 0.318 | 0.515 | 0.669 | 0.437 | 0.492 | 0.534 | 0.725 | 0.41 | 0.674 | 0.535 |
| AHADEYGAEAL [HBA1_Y25_G23D] | 0.564 | 0.97 | 0.511 | 0.46 | 0.791 | 0.536 | 0.458 | 0.398 | 1.1 | 0.538 | 0.403 | 0.412 | 0.96 | 0.393 | 0.781 | 0.66 |
| KDQPDYKYQPR [SOX9_Y172_H169Q] | 0.557 | 0.705 | 0.378 | 0.396 | 0.519 | 0.415 | 0.446 | 0.431 | 0.643 | 0.437 | 0.415 | 0.491 | 0.617 | 0.493 | 0.977 | 0.775 |
| ELAVNYQEQAS [SLC9A9_Y591_I589V] | 0.883 | 0.96 | 0.559 | 0.496 | 0.66 | 0.435 | 0.534 | 0.605 | 1.06 | 0.563 | 0.694 | 0.519 | 0.829 | 0.563 | 0.964 | 0.678 |
| NHYKIYNPCAE [PTEN_Y68_L70P] | 0.573 | 0.714 | 0.55 | 0.424 | 0.607 | 0.427 | 0.508 | 0.485 | 0.834 | 0.437 | 0.48 | 0.382 | 0.569 | 0.427 | 0.752 | 0.761 |
| QQLQGYVPSNF [FRK_Y99_I100V_YF] | 0.779 | 0.699 | 0.802 | 0.904 | 1.13 | 0.75 | 0.479 | 0.475 | 1.07 | 0.653 | 0.664 | 0.584 | 1.52 | 0.659 | 1.03 | 0.64 |
| KVFRVYQGQQP [MUTYH_Y494] | 0.494 | 0.569 | 0.388 | 0.375 | 0.413 | 0.344 | 0.374 | 0.439 | 0.608 | 0.308 | 0.415 | 0.37 | 0.484 | 0.52 | 0.849 | 0.55 |
| CSDPSYVKQME [CDC5L_Y464_Y459C] | 0.931 | 1.22 | 0.492 | 0.488 | 0.849 | 0.493 | 0.467 | 0.488 | 1.38 | 0.703 | 0.626 | 0.661 | 1.13 | 0.515 | 0.882 | 0.666 |
| ACCLLYCGDVV [TUBA4A_Y319_R320C] | 1.23 | 1.54 | 1.71 | 4.33 | 1.29 | 4.54 | 1.1 | 1.13 | 1.3 | 9.94 | 7.84 | 3.7 | 1.09 | 0.562 | 0.898 | 0.675 |
| RSDEDYLYREE [POR_Y573] | 1.16 | 1.32 | 0.827 | 0.56 | 0.813 | 0.52 | 0.761 | 0.784 | 1.54 | 0.756 | 0.854 | 0.559 | 1.48 | 0.435 | 0.738 | 0.748 |
| VFGEEYEEQPR [ZMYM2_Y1033] | 0.731 | 1.39 | 0.526 | 0.443 | 0.709 | 0.386 | 0.534 | 0.614 | 1.39 | 0.585 | 0.767 | 0.514 | 1.23 | 0.679 | 1.01 | 0.971 |
| AGQEDYDRLRP [CDC42_Y64] | 0.69 | 1.13 | 0.785 | 0.452 | 0.689 | 0.471 | 0.546 | 0.576 | 1.07 | 0.598 | 0.654 | 0.508 | 0.839 | 0.609 | 0.825 | 0.698 |
| SMAKYYASEIA [ACADSB_Y373] | 0.478 | 0.601 | 0.473 | 0.452 | 0.682 | 0.46 | 0.404 | 0.426 | 0.701 | 0.459 | 0.433 | 0.495 | 0.599 | 0.48 | 0.756 | 0.634 |
